Experimental findings from article doi:10.1101/2025.04.11.646618 are described below.

For one assay, the target named is RPS4-HF (Arabidopsis) (UniProt Q9XGM3). The assay is described as follows: co-IP.
For the next assay, the target named is YFP-RPS4 (Arabidopsis) (UniProt Q9XGM3). Kind of assay: co-IP.

For RRS1-R-GFP (receptor), the stoichiometry N with RPS4-HF (Arabidopsis) stood at 1.

The substance RRS1-R-HF (receptor) gave a stoichiometry N with YFP-RPS4 (Arabidopsis) of 1.
